# Measured values from US20140341881A1 (DERMADIS, published 2014).
# Where a chain is given by its changes, count along the chain named.
# B1: rACT6.1 (other)
# chain: MRGSHHHHHHSRHPNSPLDEENLTQENQDRGTHVDLGLASANVDFAFSLYKQLVLKAPDKNVIFSPLSISTALAFLSLGAHNTTLTEILKGLKFNLTETSEAEIHQSFQHLLRTLNQSSDELQLSMGNAMFVKEQLSLLDRFTEDAKRLYGSEAFATDFQDSAAAKKLINDYVKNGTRGKITDLIKDLDSQTMMVLVNYIFFKAKWEMPFDPQDTHQSRFYLSKKKWVMVPMMSLHHLTIPYFRDEELSCTVVELKYTGNASALFILPDQDKMEEVEAMLLPETLKRWRDSLEFREIGELYLPKFSISRDYNLNDILLQLGIEEAFTSKADLSGITGARNLAVSQVVHKAVLDVFEEGTEASAATAVKIMTRSNAVETRTIVRFNRPFLMIIVPTDTQNIFFMSKVTNPKQA
# notes: recombinant ACT variant, RSL substrate peptide MTRSN; N-terminal His tag, E. coli TG1; also called MD61; MD 61
# B2: ACTE8 (other)
# chain: B1 chain with M370L, T371Q, S373A, N374I, A375L
# notes: also called rACTE8
# Assays:
# human kallikrein 2 (hK2) [1] = molecular target: T1, human kallikrein 2 (hK2) (human, UniProt P20151 25-261); test: cell-based or functional assay
# human kallikrein hK1 = human kallikrein hK1 (human, UniProt P06870 25-262); test: cell-based or functional assay
# [2] = molecular target: T2, human plasma kallikrein (PK) (human, UniProt P03952 20-638); test: cell-based or functional assay
# T2 sequence (P03952 20-638 limits assumed): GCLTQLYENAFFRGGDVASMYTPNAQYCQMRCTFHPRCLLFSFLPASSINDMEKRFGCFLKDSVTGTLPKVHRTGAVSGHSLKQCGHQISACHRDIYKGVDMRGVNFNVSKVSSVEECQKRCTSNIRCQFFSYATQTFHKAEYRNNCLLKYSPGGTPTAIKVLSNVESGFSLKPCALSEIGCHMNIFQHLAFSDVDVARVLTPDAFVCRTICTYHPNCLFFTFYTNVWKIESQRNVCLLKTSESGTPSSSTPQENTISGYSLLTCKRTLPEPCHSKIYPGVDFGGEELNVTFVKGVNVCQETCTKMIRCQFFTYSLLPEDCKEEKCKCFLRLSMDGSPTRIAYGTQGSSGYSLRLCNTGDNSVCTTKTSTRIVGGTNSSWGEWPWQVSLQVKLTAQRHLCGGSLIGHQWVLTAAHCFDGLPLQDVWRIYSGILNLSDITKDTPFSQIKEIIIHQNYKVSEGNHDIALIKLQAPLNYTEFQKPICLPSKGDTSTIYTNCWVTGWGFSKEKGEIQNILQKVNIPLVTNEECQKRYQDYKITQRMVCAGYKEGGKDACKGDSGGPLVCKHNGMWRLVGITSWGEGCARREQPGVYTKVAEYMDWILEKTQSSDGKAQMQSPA
# [3] = molecular target: T3, urokinase plasminogen activator (uPA) (UniProt P00749 21-431, limits assumed); test: cell-based or functional assay
# [4] = molecular target: T4, human neutrophil elastase (HNE) (human, UniProt P08246 30-247, limits assumed); test: cell-based or functional assay
# T4 sequence (looked up): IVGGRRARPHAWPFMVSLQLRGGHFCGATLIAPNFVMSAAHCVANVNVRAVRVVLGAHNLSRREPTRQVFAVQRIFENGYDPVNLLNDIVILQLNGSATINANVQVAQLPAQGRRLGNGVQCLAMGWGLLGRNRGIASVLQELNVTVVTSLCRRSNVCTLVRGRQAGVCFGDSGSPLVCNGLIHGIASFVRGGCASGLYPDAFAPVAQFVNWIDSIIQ
# human kallikrein 2 (hK2) [5] = molecular target: T1, human kallikrein 2 (hK2); test: progress curve, pseudo-first order, fluorogenic substrate
# Procedure: (§1) Under these conditions, a fixed amount of enzyme (2 nM) was mixed with different concentrations of inhibitor (0-800 nM) and an excess of substrate (10 μM). Each reaction was made in reaction buffer (50 mM Tris pH 7.5, 150 mM NaCl, 0,05% Triton X-100, 0.01% BSA) at 25° C. for 45 min and the rate of product formation was measured using a FLₓ800 fluorescence 96-well microplate reader (Biotek, USA). In this model, inhibition is considered to be irreversible over the course of reaction and the progress of enzyme activity is expressed by product formation (P), beginning at a rate (vz) and is inhibited over time (t) at a first-order rate (kobs), rate constant that is dependent only on inhibitor concentration.
# [6] = molecular target: T2, human plasma kallikrein (PK); test: as above
# Procedure: as §1
# [7] = molecular target: T4, human neutrophil elastase (HNE); test: as above
# Procedure: as §1
# human kallikrein 2 (hK2) [8] = molecular target: T1, human kallikrein 2 (hK2); test: residual enzyme activity against [I]o/[E]o, fluorogenic substrate
# Procedure: (§2) The stoichiometry of inhibition (SI) values were determined for the inhibition of rACTWT and its variants with hK2 and different other enzymes. An initial test was made with a molar excess of rACT (100 fold) over hK2, PSA, hK1, chymotrypsin (Chtr), plasma kallikrein (PK), urokinase (uPA) and human neutrophile elastase (HNE) enzymes. The reaction was carried out for 30 min at 25° C. (90 min at 37° C. for PSA) in reaction buffer (50 mM Tris pH 7.5, 150 mM NaCl, 0,05% Triton X-100, 0.01% BSA) and residual enzyme activity was measured by adding fluorescent substrates (Z-Phe-Arg-AMC for hK1, hK2 and PK, Suc-Ala-Ala-Pro-Phe-AMC for Chtr, Z-Gly-Gly-Arg-AMC for uPA, MeOSuc-Ala-Ala-Pro-Val-AMC for HNE, and CFP-TFRSA-YFP (TFRSA SEQ ID NO:137) for PSA). Activity of enzyme in presence of inhibitors was compared to uninhibited reaction. For reactions where an inhibition was observed, SI was determined by incubating different concentrations of recombinant serpins. Using linear regression analysis of fractional activity (velocity of inhibited enzyme reaction/velocity of uninhibited enzyme reaction) versus the molar ratio of the inhibitor to enzyme ([Iₒ]/[Eₒ]), the stoichiometry of inhibition, corresponding to the abscissa intercept, was obtained.
# [9] = molecular target: T2, human plasma kallikrein (PK); test: as above
# Procedure: as §2
# [10] = molecular target: T4, human neutrophil elastase (HNE); test: as above
# Procedure: as §2
# [11] = molecular target: T5, human kallikrein 14 (hK14) (human, UniProt Q9P0G3 25-251, limits assumed); test: progress curve
# T5 construct: range counted on GenBank AAK48524 (printed), which may differ from the UniProt numbering; also called recombinant hK14
# T5 sequence (looked up): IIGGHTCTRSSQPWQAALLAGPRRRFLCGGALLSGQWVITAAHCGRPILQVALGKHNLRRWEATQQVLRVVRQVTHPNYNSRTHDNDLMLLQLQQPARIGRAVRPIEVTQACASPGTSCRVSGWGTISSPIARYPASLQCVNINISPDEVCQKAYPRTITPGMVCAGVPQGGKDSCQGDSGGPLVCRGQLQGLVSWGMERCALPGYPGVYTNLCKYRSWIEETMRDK
# human kallikrein 2 (hK2) [12] = molecular target: T1, human kallikrein 2 (hK2); test: cell-based or functional assay; remark: listed apart in the source
# [13] = molecular target: prostate specific antigen (PSA, hK3) (human, UniProt P07288 25-261); test: cell-based or functional assay
# [14] = molecular target: T6, human chymotrypsin (Chtr) (human, UniProt P17538 19-263); test: cell-based or functional assay
# T6 sequence (P17538 19-263): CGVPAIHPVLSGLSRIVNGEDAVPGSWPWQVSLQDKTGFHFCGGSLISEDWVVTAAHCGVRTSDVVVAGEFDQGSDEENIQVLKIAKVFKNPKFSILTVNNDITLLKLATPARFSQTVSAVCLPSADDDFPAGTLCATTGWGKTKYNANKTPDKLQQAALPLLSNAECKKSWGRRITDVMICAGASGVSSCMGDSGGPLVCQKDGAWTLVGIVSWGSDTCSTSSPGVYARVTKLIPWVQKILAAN
# [15] = molecular target: T2, human plasma kallikrein (PK); test: cell-based or functional assay; remark: listed apart in the source
# [16] = molecular target: T4, human neutrophil elastase (HNE); test: cell-based or functional assay; remark: listed apart in the source
# thrombin [17] = test: cell-based or functional assay
# [18] = molecular target: T5, human kallikrein 14 (hK14); test: cell-based or functional assay
# human kallikrein 4 (hK4) = human kallikrein 4 (hK4) (human, UniProt Q9Y5K2 31-254, limits assumed); test: cell-based or functional assay
# Chain of human kallikrein 4 (hK4) (Q9Y5K2 31-254 limits assumed): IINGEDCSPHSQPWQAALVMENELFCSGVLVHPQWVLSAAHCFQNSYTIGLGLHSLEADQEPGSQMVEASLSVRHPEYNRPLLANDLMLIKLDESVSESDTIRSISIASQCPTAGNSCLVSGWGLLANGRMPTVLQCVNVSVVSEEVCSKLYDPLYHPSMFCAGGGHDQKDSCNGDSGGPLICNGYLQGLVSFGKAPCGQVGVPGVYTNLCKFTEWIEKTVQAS
# human kallikrein 5 (hK5) = molecular target: T7, human kallikrein 5 (hK5) (human, UniProt Q9Y337 67-293, limits assumed); test: cell-based or functional assay
# T7 sequence (looked up): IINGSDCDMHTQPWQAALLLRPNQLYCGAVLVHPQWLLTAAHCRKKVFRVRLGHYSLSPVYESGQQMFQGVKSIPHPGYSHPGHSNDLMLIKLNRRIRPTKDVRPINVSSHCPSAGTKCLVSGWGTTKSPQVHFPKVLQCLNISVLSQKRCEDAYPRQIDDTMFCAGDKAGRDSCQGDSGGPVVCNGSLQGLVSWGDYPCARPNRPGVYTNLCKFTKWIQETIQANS
# human kallikrein 6 (hK6) = human kallikrein 6 (hK6) (human, UniProt Q92876 22-244); test: cell-based or functional assay
# human kallikrein 8 (hK8) = molecular target: T8, human kallikrein 8 (hK8) (human, UniProt O60259 33-260); test: cell-based or functional assay
# T8 sequence (looked up): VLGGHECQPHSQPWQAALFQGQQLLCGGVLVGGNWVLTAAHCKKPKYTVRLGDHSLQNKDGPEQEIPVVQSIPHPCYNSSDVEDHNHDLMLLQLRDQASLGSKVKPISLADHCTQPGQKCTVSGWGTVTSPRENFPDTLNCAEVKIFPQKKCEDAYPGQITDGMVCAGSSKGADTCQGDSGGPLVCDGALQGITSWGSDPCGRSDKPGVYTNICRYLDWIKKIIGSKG
# [19] = molecular target: T9, human kallikrein 13 (hK13) (human, UniProt Q9UKR3 26-277, limits assumed); test: cell-based or functional assay
# T9 sequence (looked up): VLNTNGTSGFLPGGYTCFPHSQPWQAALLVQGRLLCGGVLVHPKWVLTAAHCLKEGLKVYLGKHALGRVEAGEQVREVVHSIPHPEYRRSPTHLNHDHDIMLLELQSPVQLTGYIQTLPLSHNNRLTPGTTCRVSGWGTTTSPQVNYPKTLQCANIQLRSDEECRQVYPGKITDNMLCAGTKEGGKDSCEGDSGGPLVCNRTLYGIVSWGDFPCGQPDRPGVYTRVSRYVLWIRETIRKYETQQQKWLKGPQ
# [20] = molecular target: T6, human chymotrypsin (Chtr); test: cell-based or functional assay; remark: listed apart in the source
# [21] = molecular target: T2, human plasma kallikrein (PK); test: cell-based or functional assay; remark: listed apart in the source
# [22] = molecular target: T3, urokinase plasminogen activator (uPA); test: cell-based or functional assay; remark: listed apart in the source
# [23] = molecular target: T4, human neutrophil elastase (HNE); test: cell-based or functional assay; remark: listed apart in the source
# thrombin [24] = test: cell-based or functional assay; remark: listed apart in the source
# [25] = molecular target: T5, human kallikrein 14 (hK14); test: cell-based or functional assay; remark: listed apart in the source
# [26] = molecular target: T5, human kallikrein 14 (hK14); test: progress curve, pseudo-first order, 37 C
# Procedure: The association rate constants for interactions of hK14, with different inhibitors were determined under pseudo-first order conditions using the progress curve method (Morrison and Walsh, 1988). Under these conditions, a fixed amount of enzyme (2 nM) was mixed with different concentrations of inhibitor (0-80 nM) and an excess of substrate (20 μM). Reactions were performed in reaction buffer (50 mM Tris pH 7.5, 150 mM NaCl, 0.05% Triton X-100, 0.01% BSA) at 37° C. for 45 min and the rate of product formation was measured using a FLₓ800 fluorescence 96-well microplate reader (Biotek, USA) Inhibition is considered to be irreversible over the course of reaction and the progression of enzyme activity is expressed as product formation (P), beginning at a rate (vz) and is inhibited over time (t) at a first-order rate (kobs), where the rate constant is only dependent on the inhibitor concentration.
# Kinetic analysis of the inhibition of human hK14 by recombinant serpins were performed under pseudo-first-order conditions using an excess of inhibitor at various molar ratios of hK14. The time-dependent inactivation of the enzyme through reaction with serpin was monitored continuously, following the decrease in the rate of substrate turnover. Progress curves for reactions with different serpin concentrations were fitted to equation 1 to calculate values describing the rate constant (kobs). The association rate constants (kₐ) were determined from the slope of kobs values versus the concentration of the hK14 inhibitors.
# [27] = molecular target: T5, human kallikrein 14 (hK14); test: residual hK14 activity against [I0]/[E0]
# How it was run: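 hK14 preincubated 4 hours at 37° C with varying inhibitor concentrations in 50 mM Tris pH 7.5, 150 mM NaCl, 0.05% Triton X-100, 0.01% BSA; residual activity read with Boc-Val-Pro-Arg-AMC (ex 340/em 485 nm). SI taken as abscissa intercept of vi/v₀ versus [I₀]/[E₀] linear regression.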
# [28] = molecular target: T5, human kallikrein 14 (hK14); test: residual hK14 activity after 4 h at 37 C against [I0]/[E0]
# Procedure: SI values of rAAT, rACT, and their variants were determined with hK14 incubating the protease with varying concentrations of inhibitor. After an incubation of 4 hours at 37° C. in reaction buffer (50 mM Tris, pH 7.5, 150 mM NaCl, 0.05% Triton X-100, 0.01% BSA), the residual activity was detected by the addition of fluorescent substrate (Boc-Val-Pro-Arg-AMC). Fluorescence was measured with excitation at 340 nm (±15) and emission at 485 nm (±10) in black 96 well plates using a microplate fluorescence reader FLₓ800 (Bio-Tek Instruments, Inc.). The SI value corresponds to the abscissa intercept of the linear regression analysis of fractional velocity (velocity of inhibited enzyme reaction (vi)/velocity of uninhibited enzyme reaction (v₀)) vs. the molar ratio of the inhibitor to enzyme ([I₀]/[E₀]).
binder,measurement,setting,value
B1,INHIBITION %,human kallikrein 2 (hK2) [1],100%
same,INHIBITION %,human kallikrein hK1,0%
same,INHIBITION %,[2],100%
same,INHIBITION %,[3],0%
same,INHIBITION %,[4],60%
same,kon,human kallikrein 2 (hK2) [5],3440 M⁻¹ s⁻¹
same,kon,[6],8020 M⁻¹ s⁻¹
same,kon,[7],1190 M⁻¹ s⁻¹
same,SI (stoichiometry of inhibition),human kallikrein 2 (hK2) [8],19
same,SI (stoichiometry of inhibition),[9],16
same,SI (stoichiometry of inhibition),[10],159
B2,kon,[11],575000 M⁻¹ s⁻¹
same,Percentage inhibition,human kallikrein 2 (hK2) [12],100%
same,Percentage inhibition,[13],0%
same,Percentage inhibition,[14],14%
same,Percentage inhibition,[15],36%
same,Percentage inhibition,[16],0%
same,Percentage inhibition,thrombin [17],0%
same,Percentage inhibition,[18],100%
same,Percentage inhibition,human kallikrein 4 (hK4),100%
same,Percentage inhibition,human kallikrein 5 (hK5),100%
same,Percentage inhibition,human kallikrein 6 (hK6),72%
same,Percentage inhibition,human kallikrein 8 (hK8),34%
same,Percentage inhibition,[19],0%
same,% Inhibition,[20],14%
same,% Inhibition,[21],36%
same,% Inhibition,[22],0%
same,% Inhibition,[23],0%
same,% Inhibition,thrombin [24],0%
same,% Inhibition,[25],100%
same,kon,[26],575000 M⁻¹ s⁻¹
same,SI (stoichiometry of inhibition),[27],1.2
same,SI (stoichiometry of inhibition),[28],1.2
